Where “and” joins values, the source holds several entries; their conditions need not be identical. Equal values may be shown once.

The target in experiment [1] is human LAG-3 protein with hFc tag (hLAG-3-hFc protein) (human) (UniProt P18627). Description: ELISA, hLAG-3-hFc coated 1 ug/ml; 6.0000 ug/mL.
Experiment [2] shares this target. Description: ELISA, hLAG-3-hFc coated 1 ug/ml; 0.0000 ug/mL.
For experiment [3] the target is unchanged. Description: ELISA, hLAG-3-hFc coated 1 ug/ml; 0.0480 ug/mL.
For experiment [4] the target is unchanged. Description: ELISA, hLAG-3-hFc coated 1 ug/ml; 0.0019 ug/mL.
Experiment [5] shares this target. Description: ELISA, hLAG-3-hFc coated 1 ug/ml; 0.2400 ug/mL.
Experiment [6] shares this target. Description: ELISA, hLAG-3-hFc coated 1 ug/ml; 0.0096 ug/mL.
For experiment [7] the target is unchanged. Description: ELISA, hLAG-3-hFc coated 1 ug/ml; 1.2000 ug/mL.
The target is the same in experiment [8]. Description: ELISA, hLAG-3-hFc coated 1 ug/ml; 30.0000 ug/mL.
Experiment [9] has as its target MHC II on Raji cells. Description: FACS, Raji cells; 0 ug/ml.
Experiment [10] deals with MHC II on Raji cells. Description: FACS, Raji cells; 22.2 ug/ml.
In experiment [11] the target is MHC II on Raji cells. Description: FACS, Raji cells; 200 ug/ml.
The target in experiment [12] is MHC II on Raji cells. Description: FACS, Raji cells; 0.8 ug/ml.
Experiment [13] deals with MHC II on Raji cells. Description: FACS, Raji cells; 0.1 ug/ml.
The target in experiment [14] is MHC II on Raji cells. Description: FACS, Raji cells; 66.7 ug/ml.
In experiment [15] the target is MHC II on Raji cells. Description: FACS, Raji cells; 0.3 ug/ml.
Experiment [16] deals with MHC II on Raji cells. Description: FACS, Raji cells; 7.4 ug/ml.
The target of experiment [17] is MHC II on Raji cells. Description: FACS, Raji cells; 2.5 ug/ml.
The target in experiment [18] is T1, human LAG-3 ECD (antigen protein of the affinity test) (human, UniProt P18627 23-450).
T1 sequence: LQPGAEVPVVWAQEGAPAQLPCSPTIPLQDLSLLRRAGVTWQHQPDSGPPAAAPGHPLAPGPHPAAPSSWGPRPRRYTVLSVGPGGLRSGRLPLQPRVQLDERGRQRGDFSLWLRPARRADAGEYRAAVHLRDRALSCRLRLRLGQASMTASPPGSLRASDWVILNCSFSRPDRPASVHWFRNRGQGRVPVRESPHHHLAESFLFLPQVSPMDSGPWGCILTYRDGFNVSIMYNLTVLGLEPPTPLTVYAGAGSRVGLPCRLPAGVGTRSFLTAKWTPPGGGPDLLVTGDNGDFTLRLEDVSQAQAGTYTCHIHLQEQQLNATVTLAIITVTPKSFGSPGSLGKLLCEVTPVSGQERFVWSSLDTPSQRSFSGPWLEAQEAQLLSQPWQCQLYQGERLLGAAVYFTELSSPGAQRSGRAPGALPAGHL
Description: SPR, antibody captured by anti-human Fc IgG on CM5; ratio of KD values. As for the experimental part: First, anti-human Fc IgG was immobilized on the surface of the CM5 chip to 6000-10000 RU by amino coupling method, with FC1 as the reference channel. The coupling process was as follows: a freshly prepared 1:1 mixture of 50 mM NHS and 200 mM EDC was activated for 7 minutes, then injected with 10-50 ug/ml anti-human Fc IgG diluted in 10 mM sodium acetate ph5.0 buffer. The remaining activated sites were blocked with 1M ethanolamine. Then, HBS-EP+ buffer was used to dilute the antibody to be tested to 5 ug/ml (adjustable according to the capture level) and the antibodies were captured on the chip at a flow rate of 10 ul/min to obtain a response value of about 100˜300 RU. Then the antigen protein was diluted to 100 nM (the highest concentration was tentatively 100 nM), and flew through the chip surface at a flow rate of 30 ul/min. If enough signal value was obtained, the antigen-protein was diluted by several concentration gradients, and flew through the chip surface respectively. At the end of each cycle, the chip surface was regenerated with 10 mM Glycine at pH 1.5. The kinetic rate constant needed to be subtracted from the blank control, and the data was fitted with the global fit analysis method 1:1 combination model. The dissociation equilibrium rate constant (KD) was calculated according to the following formula: KD=kd/ka.
The method was the same as that in Example 5.

For the molecule Negative protein (control of Table 2), the OD450 was 0.09 OD450 in [1]; 0.06 OD450 in [2]; 0.06 OD450 in experiment [3]; 0.06 OD450 in experiment [4]; 0.07 OD450 and 0.06 OD450 in experiment [5]; 0.06 OD450 in experiment [6]. Further, the OD450 was 0.07 OD450 and 0.06 OD450 in experiment [7]; 0.16 OD450 and 0.14 OD450 in experiment [8].
In the case of hFc (control protein of Table 1), the Mean fluorescence value was 13 MFI in the experiment with MHC II on Raji cells [9]; 20 MFI in the experiment with MHC II on Raji cells [10]; 21 MFI in the experiment with MHC II on Raji cells [11]; 12 MFI with MHC II on Raji cells [12]; 13 MFI with MHC II on Raji cells [13]; 28 MFI with MHC II on Raji cells [14]. For the same molecule, the values for the Mean fluorescence value with MHC II on Raji cells [15], with MHC II on Raji cells [16] and in the experiment with MHC II on Raji cells [17] were 11 MFI, 18 MFI and 14 MFI, respectively.

B1: 556F6B8-3 (D→E) (humanized antibody with hot spot mutation) (antibody, human IgG4, V domains shown)
VH: QVQLQESGPGLVKPSETLSLTCTVSGFSLIKYGVHWIRQPPGKGLEWIGVIWRGGITDYNAAFMSRVTISKDTSKSQVSLKLSSVTAADTAVYYCARWEGPLAMDYWGQGTTVTVSS
VL: DIQLTQSPSFLSASVGDRVTITCKASQDVGTTVAWYQQKPGKAPKLLIYWASTRHTGVPSRFSGSGSGTEFTLTISSLQPEDFATYYCQQYSSYPYTFGQGTKLEIK
notes: made as the humanized antibodies (human IgG4 constant region); also called humanized antibody 556F6B8-3 with hot spot mutation
With B1, the “fold reduction of affinity against the corresponding chimeric antibody” value in experiment [18] is 12.5 fold.

B2: 405B8H3-1 (D→E) (humanized antibody with hot spot mutation) (antibody, human IgG4, V domains shown)
VH: QVQLVQSGAEVKKPGASVKVSCKASGYTFTDYEMHWVRQAPGQGLEWMGATDPETGNSAYNQKFKGRVTMTRDTSTSTVYMELSSLRSEDTAVYYCISTGWNDWGQGTTVTVSS
VL: DIQMTQSPSSLSASVGDRVTITCKASQDINSYLSWFQQKPGKAPKSLIYRADRLLEGVPSRFSGSGSGTDFTLTISSLQPEDFATYYCLQYDEFPYTFGQGTKLEIK
notes: made as the humanized antibodies (human IgG4 constant region); also called 405B81-13-1 (D→E); hot-spot mutated antibody
Regarding B2, the “fold increase of affinity against the chimeric antibody 405B8H3” value in experiment [18] was found to be 1.5 times.
